Experimental data reported in paper PMC3750081.

B1: p53 codon 248 both MeC O6-POB-G (dsDNA)
DNA 1: CATGAACCGGAGGCCCATC
DNA 2: GATGGGCCTCCGGTTCATG
modifications: O6-POB-dG at strand 1 position 9; 5-methyl-C at strand 1 position 8 and strand 2 position 11
B2: p53 codon 248 5'-MeC O6-POB-G (dsDNA)
DNA 1: CATGAACCGGAGGCCCATC
DNA 2: GATGGGCCTCCGGTTCATG
modifications: O6-POB-dG at strand 1 position 9; 5-methyl-C at strand 1 position 8
B3: p53 codon 158 5'-MeC O6-POB-G (dsDNA)
DNA 1: ACCCGCGTCCGCGCCATGGCC
DNA 2: GGCCATGGCGCGGACGCGGGT
modifications: O6-POB-dG at strand 1 position 11; 5-methyl-C at strand 1 position 10 (text; Table 4 marks lost)
B4: p53 codon 248 O6-POB-G (dsDNA)
DNA 1: CATGAACCGGAGGCCCATC
DNA 2: GATGGGCCTCCGGTTCATG
modifications: O6-POB-dG at strand 1 position 9
B5: p53 codon 248 O6-POB-G:MeC base pair (dsDNA)
DNA 1: CATGAACCGGAGGCCCATC
DNA 2: GATGGGCCTCCGGTTCATG
modifications: O6-POB-dG at strand 1 position 9; 5-methyl-C at strand 2 position 11

The binders below were run against AGT (O6-alkylguanine-DNA alkyltransferase) C145A (Homo sapiens, UniProt P16455 1-207, C145A) (assay: EMSA).
AGT (O6-alkylguanine-DNA alkyltransferase) C145A, sequence (P16455 whole entry C145A): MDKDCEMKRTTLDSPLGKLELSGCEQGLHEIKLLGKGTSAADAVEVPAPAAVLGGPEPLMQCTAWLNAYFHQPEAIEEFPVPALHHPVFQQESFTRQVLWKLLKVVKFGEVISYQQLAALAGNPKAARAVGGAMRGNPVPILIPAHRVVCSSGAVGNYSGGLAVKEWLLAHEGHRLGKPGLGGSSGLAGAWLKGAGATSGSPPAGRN
B1 was tested, and the Kd was 1000 ± 100 nM.
B2 was tested, and the Kd was 2000 ± 200 nM.
With B3 the Kd was 4800 ± 500 nM.
For B4, the Kd was 2200 nM.
B5 was tested, and the Kd was 1800 ± 300 nM.
